To fix the notation:
B1: M-Q8WUD6 (protein, UniProt Q8WUD6 2-406, looked up)
Cholinephosphotransferase 1: AAGAGAGSAPRWLRALSEPLSAAQLRRLEEHRYSAAGVSLLEPPLQLYWTWLLQWIPLWMAPNSITLLGLAVNVVTTLVLISYCPTATEEAPYWTYLLCALGLFIYQSLDAIDGKQARRTNSCSPLGELFDHGCDSLSTVFMAVGASIAARLGTYPDWFFFCSFIGMFVFYCAHWQTYVSGMLRFGKVDVTEIQIALVIVFVLSAFGGATMWDYTIPILEIKLKILPVLGFLGGVIFSCSNYFHVILHGGVGKNGSTIAGTSVLSPGLHIGLIIILAIMIYKKSATDVFEKHPCLYILMFGCVFAKVSQKLVVAHMTKSELYLQDTVFLGPGLLFLDQYFNNFIDEYVVLWMAMVISSFDMVIYFSALCLQISRHLHLNIFKTACHQAPEQVQVLSSKSHQNNMD
B2: M-Q8TCJ2 (protein, UniProt Q8TCJ2 2-826, looked up)
Dolichyl-diphosphooligosacchar …: AEPSAPESKHKSSLNSSPWSGLMALGNSRHGHHGPGAQCAHKAAGGAAPPKPAPAGLSGGLSQPAGWQSLLSFTILFLAWLAGFSSRLFAVIRFESIIHEFDPWFNYRSTHHLASHGFYEFLNWFDERAWYPLGRIVGGTVYPGLMITAGLIHWILNTLNITVHIRDVCVFLAPTFSGLTSISTFLLTRELWNQGAGLLAACFIAIVPGYISRSVAGSFDNEGIAIFALQFTYYLWVKSVKTGSVFWTMCCCLSYFYMVSAWGGYVFIINLIPLHVFVLLLMQRYSKRVYIAYSTFYIVGLILSMQIPFVGFQPIRTSEHMAAAGVFALLQAYAFLQYLRDRLTKQEFQTLFFLGVSLAAGAVFLSVIYLTYTGYIAPWSGRFYSLWDTGYAKIHIPIIASVSEHQPTTWVSFFFDLHILVCTFPAGLWFCIKNINDERVFVALYAISAVYFAGVMVRLMLTLTPVVCMLSAIAFSNVFEHYLGDDMKRENPPVEDSSDEDDKRNQGNLYDKAGKVRKHATEQEKTEEGLGPNIKSIVTMLMLMLLMMFAVHCTWVTSNAYSSPSVVLASYNHDGTRNILDDFREAYFWLRQNTDEHARVMSWWDYGYQIAGMANRTTLVDNNTWNNSHIALVGKAMSSNETAAYKIMRTLDVDYVLVIFGGVIGYSGDDINKFLWMVRIAEGEHPKDIRESDYFTPQGEFRVDKAGSPTLLNCLMYKMSYYRFGEMQLDFRTPPGFDRTRNAEIGNKDIKFKHLEEAFTSEHWLVRIYKVKAPDNRETLDHKPRVTNIFPKQKYLSKKTTKRKRGYIKNKLVFKKGKKISKKTV
B3: M-Q96HR9 (protein, UniProt Q96HR9 1-211, looked up)
Receptor expression-enhancing …: MDGLRQRVEHFLEQRNLVTEVLGALEAKTGVEKRYLAAGAVTLLSLYLLFGYGASLLCNLIGFVYPAYASIKAIESPSKDDDTVWLTYWVVYALFGLAEFFSDLLLSWFPFYYVGKCAFLLFCMAPRPWNGALMLYQRVVRPLFLRHHGAVDRIMNDLSGRALDAAAGITRNVLQVLARSRAGITPVAVAGPSTPLEADLKPSQTPQPKDK
B4: M-Q96AA3 (protein, UniProt Q96AA3 1-541, looked up)
Man(5)GlcNAc(2)-PP-dolichol …: MGSQEVLGHAARLASSGLLLQVLFRLITFVLNAFILRFLSKEIVGVVNVRLTLLYSTTLFLAREAFRRACLSGGTQRDWSQTLNLLWLTVPLGVFWSLFLGWIWLQLLEVPDPNVVPHYATGVVLFGLSAVVELLGEPFWVLAQAHMFVKLKVIAESLSVILKSVLTAFLVLWLPHWGLYIFSLAQLFYTTVLVLCYVIYFTKLLGSPESTKLQTLPVSRITDLLPNITRNGAFINWKEAKLTWSFFKQSFLKQILTEGERYVMTFLNVLNFGDQGVYDIVNNLGSLVARLIFQPIEESFYIFFAKVLERGKDATLQKQEDVAVAAAVLESLLKLALLAGLTITVFGFAYSQLALDIYGGTMLSSGSGPVLLRSYCLYVLLLAINGVTECFTFAAMSKEEVDRYNFVMLALSSSFLVLSYLLTRWCGSVGFILANCFNMGIRITQSLCFIHRYYRRSPHRPLAGLHLSPVLLGTFALSGGVTAVSEVFLCCEQGWPARLAHIAVGAFCLGATLGTAFLTETKLIHFLRTQLGVPRRTDKMT
modifications: interaction partner of viral M protein
B5: M-Q96ER3 (protein, UniProt Q96ER3 1-474, looked up)
Protein SAAL1: MDRNPSPPPPGRDKEEEEEVAGGDCIGSTVYSKHWLFGVLSGLIQIVSPENTKSSSDDEEQLTELDEEMENEICRVWDMSMDEDVALFLQEFNAPDIFMGVLAKSKCPRLREICVGILGNMACFQEICVSISSDKNLGQVLLHCLYDSDPPTLLETSRLLLTCLSQAEVASVWVERIQEHPAIYDSICFIMSSSTNVDLLVKVGEVVDKLFDLDEKLMLEWVRNGAAQPLDQPQEESEEQPVFRLVPCILEAAKQVRSENPEWLDVYMHILQLLTTVDDGIQAIVHCPDTGKDIWNLLFDLVCHEFCQSDDPPIILQEQKTVLASVFSVLSAIYASQTEQEYLKIEKVDLPLIDSLIRVLQNMEQCQKKPENSAESNTEETKRTDLTQDDFHLKILKDILCEFLSNIFQALTKETVAQGVKEGQLSKQKCSSAFQNLLPFYSPVVEDFIKILREVDKALADDLEKNFPSLKVQT
modifications: host interactor of M

The experiment deals with SARS-CoV-1, MERS-CoV and SARS-CoV-2 proteins in HEK293T cells. The arrangement: species or system human.
The molecule B1 came in with an MIST_MERS of 0, an MIST_SARS1 of 0.8979, an MIST_SARS2 of 0.636 and a Saint_MERS of 0. The same molecule showed a Saint_SARS1 of 0.98 and a Saint_SARS2 of 0.65.

Molecule B2 returned an MIST_MERS of 0, an MIST_SARS1 of 0.991, an MIST_SARS2 of 0.01779 and a Saint_MERS of 0. The molecule also displayed a Saint_SARS1 of 1 and a Saint_SARS2 of 0.

B3: the MIST_MERS is 0, the MIST_SARS1 is listed as 0, the MIST_SARS2 was 0.9557 and the Saint_MERS amounted to 0. This molecule returned a Saint_SARS1 of 0 and a Saint_SARS2 of 0.65.

With B4, the MIST_MERS is recorded as 0, the MIST_SARS1 is 0.809, the MIST_SARS2 was 0.5513 and the Saint_MERS is reported as 0. Also, the Saint_SARS1 is 0.95 and the Saint_SARS2 is reported as 0.98.

B5: the MIST_MERS is recorded as 0, the MIST_SARS1 was found to be 0.3763, the MIST_SARS2 is listed as 0.7695 and the Saint_MERS worked out at 0. The molecule also displayed a Saint_SARS1 of 0.98 and a Saint_SARS2 of 1.

For the origin of these results see patent publication US20230395193A1 (priority 2020, published 2023).
